Assay results published in patent US20190381162A1 (INTEGRATED BIOTHERAPEUTICS, published 2019).

Legend:
[1] = biological target: T1, Ebola virus (EBOV) glycoprotein (GP), wild-type, construct not stated (Ebola virus (EBOV), UniProt Q05320 33-650); assay: cell-based or functional assay
T1 sequence: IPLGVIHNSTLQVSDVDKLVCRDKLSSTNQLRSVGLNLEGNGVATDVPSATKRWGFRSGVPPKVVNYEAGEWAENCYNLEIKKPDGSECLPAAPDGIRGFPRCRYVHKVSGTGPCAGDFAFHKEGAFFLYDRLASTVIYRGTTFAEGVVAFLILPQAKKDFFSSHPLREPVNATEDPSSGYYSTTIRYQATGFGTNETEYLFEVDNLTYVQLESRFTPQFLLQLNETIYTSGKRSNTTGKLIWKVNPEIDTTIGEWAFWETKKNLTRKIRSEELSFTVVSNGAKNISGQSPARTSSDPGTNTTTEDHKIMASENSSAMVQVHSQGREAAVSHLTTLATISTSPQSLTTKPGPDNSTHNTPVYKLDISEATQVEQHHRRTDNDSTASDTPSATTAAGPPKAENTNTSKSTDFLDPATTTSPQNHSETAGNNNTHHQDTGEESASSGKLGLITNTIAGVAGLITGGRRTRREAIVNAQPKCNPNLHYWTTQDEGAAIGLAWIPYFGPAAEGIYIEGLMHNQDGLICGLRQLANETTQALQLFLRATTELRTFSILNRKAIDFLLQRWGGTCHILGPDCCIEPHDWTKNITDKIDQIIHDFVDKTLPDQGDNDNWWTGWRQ

[2] = biological target: T2, thermolysin-cleaved GP (GPCL) (Ebola virus (EBOV), UniProt Q05320 33-190; Q05320 502-650); assay: ELISA
T2 sequence 1: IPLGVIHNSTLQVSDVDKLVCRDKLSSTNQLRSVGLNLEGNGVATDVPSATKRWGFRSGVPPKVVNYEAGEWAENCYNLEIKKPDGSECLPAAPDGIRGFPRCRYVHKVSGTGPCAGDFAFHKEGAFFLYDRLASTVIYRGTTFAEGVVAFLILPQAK
T2 sequence 2: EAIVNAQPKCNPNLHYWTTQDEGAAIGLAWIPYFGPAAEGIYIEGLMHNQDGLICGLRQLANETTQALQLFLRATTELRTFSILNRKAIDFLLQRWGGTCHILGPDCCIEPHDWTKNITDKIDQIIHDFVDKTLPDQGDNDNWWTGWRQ

[3] = biological target: T2, thermolysin-cleaved GP (GPCL); assay: biolayer interferometry

Binder | EC50 of neutralization of luciferase-expressing VSV pseudotype on Vero cells [1] [µg/mL] | EC50 [2] [pM] | Kd [3] [pM] | koff [3] [s⁻¹] | kon [3] [M⁻¹ s⁻¹]
m8C4 (antibody, V domains shown) VH: EVQLQESGPELKKPGETVKISCKASGYTFTTYGMSWVKQAPGKGLKWMGRINTYSGVPTYADEFKGRFAFSLENSASTAYLQINNLKNEDTATYFCARGDGGHWFANWGQGTLVTVSA VL: DIQMTQSPSSLSASLGGKVTITCKASQDINKNIAWYQHKPGKGPRLLIWYKSALQPGIPSRFSGSGSGRDYSFSISNLEPEDIATYSCLQYDNLPPTFGGGTKLEIKR | > 10 |  |  |  | 
CA45 (antibody, V domains shown) VH: QVQLQEWGEGLVKPSETLSLTCAVYGGSISGYYHWNWIRLPPGKGLEWIGNIDNSASTNYNPSLKTRVTISKDTSKNQISLKVRSLTAADTAVYYCARDPGFTIFGVVITSWSGLDSWGQGAVVTVSS VL: DIQMTQSPSSLSASVGDTVTITCRASQSISNNLAWYQQRPRRAPQLLIYAASNLASGVPSRFSGSGSGTDFTLTISSLQAEDFAAYYCQQHNTLPLTFGGGTKVEI |  | 60 | < 6 | < 1e-07 | 16000
